Assay results taken from a protein production outcome set (Wang et al. 2014).

Assay: label from the status in PepcDB records
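Also: failed if final PepcDB status was selected cloned or expressed and not failed if soluble or beyond.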

Sequence	protein production
MAAGSLLTLLDDIATLLDDVALATKKTAGVLGDDLALNAQQVTGVSADRELPVVWAVAKGSLLNKAILVPAALLISAFAPWAILPLLMIGGAFLCFEGFEKIAHKWLHPEAGEEHDQRKQAATDASVDMVAFEKERIKGAIRTDFILSAEIIVLALGVVSARPFMDQVGVLVIVAVLITVGVYGLVAGIVKLDDLGLHLKRTASSVAQTIGSALLWLAPVLMKVLSIVGTAAMFMVGGGILVHGLPFAHHWADGVTEAASAAVGGLSMIVPTLIDAIAGIIAGAVLVLIVTLVGKVWKAARE	not failed
MSMKILKASVFVIIVFFLMPLPVVAAKKGIYCGELKGSHYGPFDYMDRFNHSEQLKIVEDFHFTSDVEDLIRGSTSSTPAKDLNYTLHAWPNHHRALVSLFKYSIKEKSTRIKGLKYPVECYFDRAIRMNMKDVQVRSIYSAFLSHRGRNKEALEQLEVAANLEPDNATILYNLGLLYFKQKNYEKASHYAEKAYALDYPLPGLRNKLIQAGKWRGSASGRSGK	failed
SGMLERLPLCGKAFADMMGKVDVWKWCNLSEFIVYYESFTNCTEMEANVVGCYWPNPLAQGFITGIHRQFFSNCTVDRVHLEDPPDEVLIPLIVIPVVLTVAMAGLVVWRSKRTDTLL	failed
MSDLLFPIISMVLLVLAEAGVLQFTGRQKVDWLDVIFNINSGHMMLWLFRCLEVLCYGLVINHFSLGLFDNAPVILLWLFTILAWDFGFYWLHRWHHEMRPLWAVHVVHHQGEHYNLSLGVRNSWYSSLTSIPFFMLLAMLGVPLQIFLAVSIIHYSWQFFNHNALTPKLGWLEKVLITPSHHRVHHLNQKQYADTNYGGTFLLWDKLFGSYSAGPEYDVGYGVKNSRLSCNPMRESNLPFLRLMGFRSFGKAIEGRYQSSPWAVGAGVILLFMLVLGYIQQYGYGIEFITSEQAVLFVLLAAGSVALGGMSDGQHWGMILWCSVTLSLLYFIVYMCSWSTLLWKGLVGILLAHCLLFVIGVGRKSLRKQYEPV	failed
MKLEAEAVAPSNIAIVKYWGKRDRELNLPLNSSLSISLDSLWVRSRVIFDESLDKDEVIINGKRLSENEVREYAGRVLRRFRDLYGKELFARVESTTNFPSSAGLASSAAGIAALTYASNAALGLGLSNRELSKIARVGSGSACRSMFGGFVKWNRGELESGDDSFCEEIFPPDHWPDLVDIIPIFGEEKKKVSSRTGMENTATSSALMRCRLQFIEETFNEVIDAIRTKNAGKFFQLTMRHSNSMHAVILDSWPPMNYLNEKSFRVMEWVVEFGKAAYTFDAGPNPHIFVLEKDVDEVLKFLNEIGSTKTIVSRVGKGPYLI	failed
MERKGIFIKVFSYTIIVLLLLVGVTATLFAQQFVSYFRAMEAQQTVKSYQPLVELIQNSDRLDMQEVAGLFHYNNQSFEFYIEDKEGSVLYATPNADTSNSVRPDFLYVVHRDDNISIVAQSKAGVGLLYQGLTIRGIVMIAIMVVFSLLCAYIFARQMTTPIKALADSANKMANLKEVPPPLERKDELGALAHDMHSMYIRLKETIARLEDEIAREHELEETQRYFFAAASHELKTPIAAVSVLLEGMLENIGDYKDHSKYLRECIKMMDRQGKTISEILELVSLNDGRIVPIAEPLDIGRTVAELLPDFQTLAEANNQRFVTDIPAGQIVLSDPKLIQKALSNVILNAVQNTPQGGEVRIWSEPGAEKYRLSVLNMGVHIDDTALSKLFIPFYRIDQARSRKSGRSGLGLAIVQKTLDAMSLQYALENTSDGVLFWLDLPPTSTL	failed
GHMSEFVSIAARQEGAVGIIELARPDVLNALSRQMVAEIVAAVEAFDRNEKVRVIVLTGRGRAFAAGADIQEMAKDDPIRLEWLNQFADWDRLSIVKTPMIAAVNGLALGGGFELALSCDLIVASSAAEFGFPEVNLGVMPGAGGTQRLTKLIGPKRALEWLWTGARMSAKEAEQLGIVNRVVSPELLMEETMRLAGRLAEQPPLALRLIKEAVQKAVDYPLYEGMQFERKNFYLLFASEDQKEGMAAFLEKRKPRFQGK	not failed
MEQRRVTDFFARRRPGPPRIAPPKLACRTPSPARPALRAPASATSGSRKRARPPAAPGRDQARPPARRRLRLSVDEVSSPSTPEAPDIPACPSPGQKIKKSTPAAGQPPHLTSAQDQDTISELASCLQRARELGARVRALKASAQDAGESCTPEAEGRPEEPCGEKAPAYQRFHALAQPGLPGLVLPYKYQVLAEMFRSMDTIVGMLHNRSETPTFAKVQRGVQDMMRRRFEERNVGQIKTVYPASYRFRQERSVPTFKDGTRRSDYQLTIEPLLEQEADGAAPQLTASRLLQRRQIFSQKLVEHVKEHHKAFLASLSPAMVVPEDQLTRWHPRFNVDEVPDIEPAALPQPPATEKLTTAQEVLARARNLISPRMEKALSQLALRSAAPSSPGSPRPALPATPPATPPAASPSALKGVSQDLLERIRAKEAQKQLAQMTRCPEQEQRLQRLERLPELARVLRSVFVSERKPALSMEVACARMVGSCCTIMSPGEMEKHLLLLSELLPDWLSLHRIRTDTYVKLDKAADLAHITARLAHQTRAEEGL	failed
QCPASVEKAIISSFSPVLNEPMLDYIDKAQVYLAAREKRKIGSLLNDTVGKHLPRLFKLYNYKHLIGLAEHEYGQIDFHISQIRTLSASNYVERFSSIKIPVLFINGEKDEYTTVEDARMFSNYIAKSSFNVVPDTGHFLDLESKAAWHHSQKTALSFLGT	not failed
MSDVAATAQRQQVRQQGLILGLVTLPFRCFGVLCGSLFLCIVIECIGMALFWPDQGWRHAQAMLGHELDQLSDYFVRSALVQEPGRTAHQWIQHAYEWAFVRSGLLEWMQDASRQARAGASGRPWSLPQVLATVSMHAEGYLIAAAYTVLLFLVRLLMLCLTLPLFALAAFVGLVDGLVRRDIRRFGAGRESGFLYHRARASLVPLAVLPWVTYLALPVRVHPVVILLPSAVLLGVAVDIAAGSFKKYL	failed
MKASELRNYTDEELKNLLEEKKRQLMELRFQLAMGQLKNTSLIKLTKRDIARIKTILRERELGIRR	not failed
MKKKIIIAIVASAITMTHFVGNTYADSKTEVSVTAPYNTNQIAKWLEAHAKPLKTTNPTASLNDLKPLKNMVGSASIVGLGEATHGAHEVFTMKHRIVKYLVSEKGFTNLVLEEGWDRALELDRYVLTGKGNPSQHLTPVFKTKEMLDLLDWIRQYNANPKHKSKVRVIGMDIQSVNENVYNNIIEYIKANNSKLLPRVEEKIKGLIPVTKDMNTFESLTKEEKEKYVLDAKQISALLEENKSYLNGKSKEFAWIKQNARIIEQFTTMLATPPDKPADFYLKHDIAMYENAKWTEEHLGKTIVWGHNGHVSKTNMLSFIYPKVAGQHLAEYYGKRYVSIGTSVYEGQYNVKNSDGEFGPYGTLKSDDPNSYNYIFGQVKKDQFFIDLRKANGVTKTWLNEQHPIFAGITTEGPDIPKTVDISLGKAFDILVQIQKVSPSQVHQLEHHHHHH	not failed
MKIALIGASGYVGSALLKEALSRGHHVTALVSRPERIAAQANLAAAKVDVQDSAQLAEQLKGFDAVLSAFSGHAQAEQFDYFVKGIRSIIAAAKAAQAPRLLVVGGAGSLEVAPGVQLVDTPEFPEQWKASALGAREALNLLRAETELNWTLLSPSAMLQPGQRTGQFRLGKDQLLVDAEGNSHISVEDYAVAMIDELEKGEHQRSRFTVGYLEHHHHHH	not failed
MDGEAFEISLLDGEEDRFGGTVVNLMEVESMTIGDFDSKLDVSLKAWKDQGKKGIWIKLPSELSSLVDTAIKKGFTYHHAENEYVMLTFWLPEPPSTLPCNASHRIGIGAFVLNKNGEMLVVQENSGYFKDKNVWKVPTGTIKEGESIWAGAVREVKEETDIDAEFVEVLSFMESHQAVWQRKTDIFFVCELEARTFEIQKQDSEIHAAKWMPVEEYVNQPYHNKEGNEMFKLIANICLKRSREKYTGFVLTTNSAKKSLYCSVDHANLLKETADQASTSLSD	failed
MLRYHMQGFSGYGVQYSPFFDNRLAVAAGSNFGLVGNGKLFILEIDRSGRIVEVNSFLTQDCLFDLAWNESHENQVLVAQGDGTLRLFDTTFKEFPIAIFKEHEREVFSCNWNLVNRQNFLSSSWDGSIKIWSPLRKQSLMTLTPRPLEITKMVDPLNAIILKKKSFTGISKNRNCVYQAQFSPHDQNLVLSCSGNSYASLFDIRLPSGKNQNNFLVHSGLEALTCDFNKYRPYVVATGGVDNAIRIWDIRMLNKNESATIKRTVPGQLHNSSCINEIPNAHGLAIRKVTWSPHHSNILMSASYDMTCRIWRDLSNDGAKETYKTNSTDATKGSIFNFTQHSEFVFGADWSLWGKPGYVASTAWDGNLFVWNGLG	failed
